How the values were obtained:
[1] = biological target: mCD73hF1-S269A (mouse; human) (UniProt Q61503); experiment: ELISA, 10H5 titrated on the mutant protein
[2] = biological target: mouse CD73-D296E-K297R (mouse) (UniProt Q61503); experiment: ELISA, 10H5 titrated on the mutant protein
[3] = biological target: mCD73hF3 (mouse; human) (UniProt Q61503); experiment: ELISA, antibody titrated; panel mCD73 hF3
[4] = biological target: T1, human CD73 on cells (MDA-MB-231, Calu-1, KLM-1, human CD4+ T-cells) (human, UniProt P21589 27-549); experiment: cell-based or functional assay
T1 sequence: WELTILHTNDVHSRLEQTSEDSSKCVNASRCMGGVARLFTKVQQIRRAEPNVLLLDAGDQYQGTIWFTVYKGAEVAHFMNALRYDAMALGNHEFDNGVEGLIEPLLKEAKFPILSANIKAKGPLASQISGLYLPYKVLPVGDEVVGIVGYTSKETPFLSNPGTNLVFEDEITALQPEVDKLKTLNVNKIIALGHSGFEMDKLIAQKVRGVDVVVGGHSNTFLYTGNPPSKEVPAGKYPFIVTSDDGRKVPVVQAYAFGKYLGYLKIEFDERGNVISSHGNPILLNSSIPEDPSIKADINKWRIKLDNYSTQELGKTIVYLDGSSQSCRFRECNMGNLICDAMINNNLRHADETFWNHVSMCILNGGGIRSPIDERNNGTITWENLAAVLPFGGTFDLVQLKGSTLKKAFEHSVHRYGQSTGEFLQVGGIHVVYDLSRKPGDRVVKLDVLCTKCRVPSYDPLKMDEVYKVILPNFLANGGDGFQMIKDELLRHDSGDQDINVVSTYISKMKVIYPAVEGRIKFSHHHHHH

[5] = biological target: mCD73hF2 (mouse; human) (UniProt Q61503); experiment: ELISA, antibody titrated; panel mCD73 hF2
[6] = biological target: mCD73hF1-R297K (mouse; human) (UniProt Q61503); experiment: ELISA
[7] = biological target: mouse CD73-D296E-K297R (mouse) (UniProt Q61503); experiment: ELISA
[8] = biological target: T2, human CD73 (human, UniProt P21589 27-549); experiment: Biacore SPR
T2 construct: the antigen of the Biacore assay is only called human CD73 antigen; also called human CD73 antigen; Recombinant Human CD73-6xHis
T2 sequence: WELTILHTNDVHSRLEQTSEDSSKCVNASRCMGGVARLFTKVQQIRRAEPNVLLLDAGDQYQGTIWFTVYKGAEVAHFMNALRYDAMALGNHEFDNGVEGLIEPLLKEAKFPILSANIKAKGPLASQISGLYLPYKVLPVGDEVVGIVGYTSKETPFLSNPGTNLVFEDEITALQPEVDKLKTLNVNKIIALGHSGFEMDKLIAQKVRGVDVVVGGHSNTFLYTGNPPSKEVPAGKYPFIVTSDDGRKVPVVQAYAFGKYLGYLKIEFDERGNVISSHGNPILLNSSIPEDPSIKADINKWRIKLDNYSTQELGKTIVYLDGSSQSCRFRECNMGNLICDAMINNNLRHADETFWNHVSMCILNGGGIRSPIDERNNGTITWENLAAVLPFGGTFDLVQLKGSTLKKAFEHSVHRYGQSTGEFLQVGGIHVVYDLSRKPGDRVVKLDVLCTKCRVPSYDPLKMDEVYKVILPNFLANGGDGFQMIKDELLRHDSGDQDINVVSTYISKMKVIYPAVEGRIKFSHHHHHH

[9] = biological target: T3, mCD73hF1-K206A-N211G (mouse; human, UniProt Q61503 29-270; Q61503 307-551); experiment: ELISA, antibody titrated; panel mCD73 hF1 K206A N211G
T3 chain: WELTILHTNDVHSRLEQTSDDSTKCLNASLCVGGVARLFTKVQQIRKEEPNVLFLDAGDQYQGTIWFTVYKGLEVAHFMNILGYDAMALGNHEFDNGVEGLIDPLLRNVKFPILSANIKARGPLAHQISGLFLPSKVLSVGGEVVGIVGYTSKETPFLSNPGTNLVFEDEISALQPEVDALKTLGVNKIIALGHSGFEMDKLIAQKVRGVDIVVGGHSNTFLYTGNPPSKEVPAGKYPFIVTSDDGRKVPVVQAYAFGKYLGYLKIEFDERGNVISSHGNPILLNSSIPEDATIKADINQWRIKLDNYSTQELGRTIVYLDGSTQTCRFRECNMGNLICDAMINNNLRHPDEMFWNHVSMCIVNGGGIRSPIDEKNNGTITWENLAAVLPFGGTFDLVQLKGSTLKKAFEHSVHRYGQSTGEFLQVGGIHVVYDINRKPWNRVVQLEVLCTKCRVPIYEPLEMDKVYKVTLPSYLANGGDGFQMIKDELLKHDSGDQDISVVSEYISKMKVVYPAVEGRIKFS

[10] = biological target: T4, mCD73hF4 (human; mouse, UniProt Q61503 307-551, limits assumed); experiment: ELISA, antibody titrated; panel mCD73 hF4
T4 construct: Mouse-human domain swapping protein, expressed in F293 cells
T4 sequence: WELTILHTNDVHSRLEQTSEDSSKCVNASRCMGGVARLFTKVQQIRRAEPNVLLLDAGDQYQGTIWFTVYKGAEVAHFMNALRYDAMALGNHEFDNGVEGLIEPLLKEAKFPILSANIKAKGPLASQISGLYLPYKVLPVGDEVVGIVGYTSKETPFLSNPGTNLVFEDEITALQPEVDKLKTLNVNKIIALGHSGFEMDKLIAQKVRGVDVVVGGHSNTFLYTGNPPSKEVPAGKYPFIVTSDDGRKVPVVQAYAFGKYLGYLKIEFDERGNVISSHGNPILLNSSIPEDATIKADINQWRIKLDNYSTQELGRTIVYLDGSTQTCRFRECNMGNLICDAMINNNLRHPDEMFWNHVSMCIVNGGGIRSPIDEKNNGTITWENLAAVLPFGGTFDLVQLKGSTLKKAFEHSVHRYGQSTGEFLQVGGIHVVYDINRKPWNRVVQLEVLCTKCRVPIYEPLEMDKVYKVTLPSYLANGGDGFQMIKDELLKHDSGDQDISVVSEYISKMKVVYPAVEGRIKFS

[11] = biological target: mCD73hF1 (mouse; human) (UniProt Q61503); experiment: ELISA, antibody titrated; panel mCD73 hF1
[12] = biological target: mCD73hF1 (mouse; human) (UniProt Q61503); experiment: ELISA, antibody titrated; right panel mCD73 hF1
[13] = biological target: T2, human CD73; experiment: Biacore SPR; remark: listed apart in the source

B1: 10H5 antibody (antibody, V domains shown)
VH: QVKLQQSGAELVKPGASVKISCKASGYVFSSYWINWVKQRPGKGLEWIGQIYPGDGNTNYNRNFKGKATLTADKSSSTAYMQLSSLTSEDSAVYFCAGFADWGQGTTVTVSS
VL: DIELTQSPSSLSASLGERVSLTCRASQDIGDSLIWLQQEPDGTIKRLIYATSSLDSGVPKRFSGSRSGTSYSLTISSVEAEDAATYYCQQYSGYPLTFGSGTKLEIK
notes: Mouse scFv-derived variable domains put into an expression vector with CH and CL chains (full-length chimeric antibody); also called 10H5 chimeric; 10H5 MM
Binder B1 has an EC50 (read off the curve) [1] of 500 pM, an EC50 (read off the curve) [2] of 200 pM and an EC50 (read off the curve) [3] of 200 pM. The “AMP concentration in supernatant by LC/MS, MDA-MB-231 cells, 400 µM AMP, 10 nM antibody, 6 hours” value [4] was 347 µM, the “AMP concentration in supernatant by LC/MS, MDA-MB-231 cells, 400 µM AMP, 10 nM antibody, 24 hours” value [4] was 290 µM and the “AMP consumption, Calu-1 cells, 10 nM antibody, 24 hrs” value [4] was under 20%. For the same binder, the “AMP consumption, MDA-MB-231 cells, 10 nM antibody, 6 hr” value [4] was under 10%, the “AMP consumption, MDA-MB-231 cells, 10 nM antibody, 24 h” value [4] was under 50% and the EC50 (read off the curve) [5] was 200 pM. For the same binder, the binding affinity relative to that to mCD73hF1 [6] was 0.1 fold, the Kd [7] was 98 pM and the Kd [8] was 684 pM. For the same binder, the “EC50 (read off the curve)” value [9] was about 200 pM, the “EC50 (read off the curve)” value [10] was about 200 pM and the EC50 (read off the curve) [11] was 300 pM. It also gave an EC50 (read off the curve) [12] of 300 pM, a koff [13] of 5.78e-05 s⁻¹ and a kon [13] of 84600 M⁻¹ s⁻¹.

— patent US20250136709A1 (DEVELOPMENT CENTER FOR BIOTECHNOLOGY, published 2025)
